{
  "source": "patent US20070014817",
  "key": {"[1]": {"test_system": "Plasmodium berghei Merozoite Surface Protein 1, 42 kDa form (PbMSP1-42)"}, "[2]": {"test_system": "Plasmodium berghei Apical Membrane Antigen 1 (PbAMA1)"}},
  "data": [
    {"substance": "Plasmodium berghei subtilisin-like protease SUB2 (PbSUB2), TrimycDuoXpress (TmDX) epitope-tagged, as expressed in WT-TmDX1 and SPA-TmDX1 recombinant parasites", "values": [
      {"measurement": "ratio of HSP70-corrected PbMSP1-19 maturation product, SPA-TmDX1 (PbSUB2 over-expressing) versus WT-TmDX1 merozoite extracts, Western blot, 1.3 x 10^6 parasites (fold (ratio of corrected amounts))", "setting": "[1]", "value": 2.9},
      {"measurement": "ratio of HSP70-corrected PbMSP1-19 maturation product, SPA-TmDX1 (PbSUB2 over-expressing) versus WT-TmDX1 merozoite extracts, Western blot, 6.5 x 10^6 parasites (fold (ratio of corrected amounts))", "setting": "[1]", "value": 2.5},
      {"measurement": "ratio of HSP70-corrected PbMSP1-19 maturation product, SPA-TmDX1 (PbSUB2 over-expressing) versus WT-TmDX1 merozoite extracts, Western blot, 13 x 10^6 parasites (fold (ratio of corrected amounts))", "setting": "[1]", "value": 2.1},
      {"measurement": "ratio of HSP70-corrected PbAMA1-CT15 maturation product, SPA-TmDX1 (PbSUB2 over-expressing) versus WT-TmDX1 merozoite extracts, Western blot, 6.5 x 10^7 parasites (fold (ratio of corrected amounts))", "setting": "[2]", "value": 9.7}
    ]}
  ]
}
